From the DeepSol protein solubility set

Experiment: soluble on expression in E. coli; label from the status in PepcDB or PDB records

| Sequence | soluble on expression in E. coli |
| --- | --- |
| TETSPDKWLIDGDTPLDEVERAIGYELPEGDYETISGLLFDHANALLKTGDVIEIPLDFEPEDYLNNTSPTQRILRITVLEVERNVPVKLALALLEDHPDNHPAPKENR | soluble |
| MAHHHHHHMNGMRAYNLGSRRYHDVLRLQEAIFRKKIDRQMRYIRGDKSARLIPNVVLLVEHSSPVYTIGRRDTSNGIKAGCAAEVVKTRRGGGVTFHGPGQVTMYPIVNVQVLWKQCTASDKPRSPIEWFSSVLEQAMINVAGEYNIPAHRGRVGVWSDSWGDVAPRKMGFVGLQLGNWVSMHGAGLNVSNNLLYFNDIVMCEMPNEAATSLVEELRLRGLSGAEPTPHVIAPRLLHHFLLSMQQQESVVNTELVDLSIDGSWERSILCELE | not soluble |
| MSRSKKSRKPGTNSNDQLVVVRTRSESELESRLRKKLKKRKGLKSGSRHSEGSESQVRQAAQKRDPRLGSKKPIPLIVAEPKKLNKQERKLAAEQELAMLEKDAQLNVLLDRLDNGEKLGIGLQKYVDEKLDRIEVLMEQLGLLDDEPEPAPAPQSKPTKKRKTEDDLLSEFEQLDVDKYQD | not soluble |
| MEQEFFFPPPKKSDGPVVACVVEKKGDGTRTSMRQNEIYAYSAQIRTGDGCMVMPKIHWNSFEPSDWVSCTLEYVNKANQIKEKEMLEISKVPAENFDRFGMPPTRFENGIVQIKTLFVACPEFIKNRETRNAYGSYKKLFILNIGLGFVSTRRTADGNLAEKVKNGDVYTGIFEFRAKDNGAINFNHRGRVRDETNHVIERDAMWELTKTSSVAATDVQKKQMKEAIEQLRKDAEQFEREFKDSQSRPVAPMLPPNEISENRKEINLGLALPSRHSQPSIRTVDVVTTTPAQMMPTASSFRIPFAQVSKAPVVAPSSQLQQQQQQPCSSNQTARIGNFLERDQVRGNLLGVPLSSSTPRGSPELLRRREVTADDGNITSNTAVMLRDNNANPMNRRRPS | not soluble |
| PNVVKMNKPFISLCPEITRAHALTLMDWLEDEHVTRHLSDSRHVSRFIEQVIDRVQLPVLTHLFNQGGRFFMAYDRHDVPVGFVRLVKTGSDCEIVLVIGNRDNWGRKLGASAIREGMKLAFFEMRAARLIAKVHPDNERSLNAFLRCGFVLESETP | not soluble |
| SLFQIGDNIVYPMHGAGIIEAIEEKEFLEEKQQYYVIRMSISNMTVMIPTSKILSSNIRPVTDILALKHIMHIFQHGESDRLLPWKQRYKINTDKIKTGEIQEGAEVVRDLMRMKKEKALNASEKKMLDNAYEFLISELEVIKGITEKQIKSFG | soluble |
| MGSDKIHHHHHHMRTKIGIYLSSEPESGGMFQYGLSILDAAASLPRDRYQTTVAFISERWNEHLKFRNLEHFQISPNFLWRIFKGKGWLLLNLPISFWRWILINLNPFFYKRLIQEGCDLWLFPSQDTWTYLLRLNSLGVVHDLMHRYEKKFSEVAAPFEYRRRERHYRAMCEYSKGILVDSNYGKRQVLESYDAKPDFIHVLPYVPPEYINIKNAPIDFDSRYNLPRKFLFYPAQFWEHKNHHNLLAALAHLKRELRDIHVVLVGSKKNAYKKTLGYINSMNLSDHVIILGYVPNEDMAEFYRRARALVFPSFFGPTNIPPLEACAAGCPLAVSNIYGMPEQLGDAALFFNPHSVEEIHLAMKRLWIDDALCRQLSMNGKKWAKAWNQNSFNRQFQVIIEEVLKNPNT | not soluble |
| MSGIAAGRLAEERKHWRKDHPFGFIAKPVKNADGTLNLFNWECAIPGRKDTIWEGGLYRIRMLFKDDFPSTPPKCKFEPPLFHPNVYPSGTVCLSLLDENKDWKPSISIKQLLIGIQDLLNHPNIEDPAQAEAYQIYCQNRAEYEKRVKKEAVKYAAELVQKQMLE | not soluble |
| MIPRILGALLLCLACAAQAGVYTYIDAEGNRVYTDQPPSGRKAQRVELAPGNSVAPPGIRYRPPAAPLEVKPPAYQLLRILFPEPDATLRANSGDVIVTVTSEPALLPGHRYRLLLDGKPAGVPGRSPVFPLKNLDRGTHQVAVEIIDGDGMTVESTPSQPFHLHRVSIAGQPLPEVDTPLVSAIEPSER | not soluble |
| MFPEQQKEEFVSVWVRDPRIQKEDFWHSYIDYEICIHTNSMCFTMKTSCVRRRYREFVWLRQRLQSNALLVQLPELPSKNLFFNMNNRQHVDQRRQGLEDFLRKVLQNALLLSDSSLHLFLQSHLNSEDIEACVSGQTKYSVEEAIHKFALMNRRFPEEEEEGKKDADVEYDSESSSSGLGHSSDDSSSHGCKTSPALQES | soluble |
| MKLFERIHQDTEIRQIYDAIGQMEDEEAGWAYHNWFHVTNVVAMTEMILKQLAVSEEYLEAAKIAALLHDVGALQGKAGHALRGKQFAEAYFRKQKICLPYQEEILSSIENHSNGFDSEELMTLALIISDKLDITTSRVAKAGYFVPGMRQFQFLKKIEIMLSEQEVCVSFTAEEELDLEELNAFYFMPKVFKAIAAFSGKIQRRPIVLLNNQEWPVPKQKNPSTVHLEHHHHHH | soluble |
| MPLTSVTPLCITWNGEKLVAAGYDSTILTAVPKDIVKVKVNDRPIVFDVAPIIGEGRTLVPLRHIFEALGAEVKWDASTRTVTGIKGSDKIILKIDSKEALVNGETKELDVPATIVNGRTLVPVRSISESLGAEVSWDDNSKTVIIKTNF | not soluble |
| MTRTVSMSTAINEAMKISMRRDENVILIGEDVAGGAQVDHLQDDEAWGGVLGVTKGLVQEFGRNRILDTPISEAGYMGAAMAAAATGLRPIAELMFNDFIGSCLDQVLNQGAKFRYMFGGKAKVPVTVRTMHGAGFSAAAQHSQSLYALFTSIPGIKVVVPSTPYDAKGLLLAAIEDDDPVIFFEDKTLYNMKGEVPEGYYTIPLGKADIKREGSDVTIVAIGKQVHTALAAAEQLAKKGLEVEVIDPRSLSPLDEDTILSSVEKTNRLIVIDEANPRCSIATDIAAIVADRGFDLLDAPIKRITAPHTPVPFSPPLEKLYLPTPEKVIETVSEMIGDQSLLHV | not soluble |
| MAHHHHHHMSYQPPYGYASSPQASPYFPGGNYYSTPPPIPQQQPFQTSPLFGTEQEAVQWFRAVSSSSGGYISVPQLQSALSQGGMNFSYATTERLISMFDANLDGAIDFTEFQELHRYILSMRGGFSQRDTSRDGLLEGNEVRMALSANFYQVDDNTFQTLMRKFDRRKRGSLGFDDYIELSLFVGKANDAFKAQSQGKASATFSFSSFLSAGASLL | soluble |
| MGSDKIHHHHHHEATETQNEKVKVKVETVSVQDVEQLSEFTATVEANIKNNIAPQTPFRIEKIFAEVGDHVKAGQLLAKMDATSLKQAKIQLDNQEIEFKRIDELYKVGGASKSAWDAQKTSLEVARETYKNLVENTQLLSPISGIVTARNYDSGDMYSGGNPIYTVEEIRPVKLMVNVSESLFTKVKKGHEVDIRLDVYGDEVFKGKVNLVYPTIDPATRTFPVEIKIANSDERVRPGMFARVTMSFGHMDHVVAPDRSIVKQSGAGDRYIYVCKDGKVSYQKVKLGRRMGDKYEIISGVEDGDQVVITGQSRLTNGMEVEIENE | not soluble |
| MAKYTEWLTEEGLIKIEGWARDGLIDKQIAQNIGVAYSTFREWVKKFPALSASLKKGKEVVDRQVENALFKSATGYEYTEVTEELTENGMEITKKVKKQVAPNPTAAIFWLKNRKPDEWRDRKETEVSGVLNISDAAVEIEQFFEDDST | not soluble |
| MNVIEGVVATPNARVAIAIARFNNFINDSLLDGAIDALKRIGQVSDDNITVVWVPGAYELPLVANVLAKTNRYDAVIALGTVIRGGTAHFEYVAGEASSGLSSVAMNSDIPVAFGVLTTESIEQAIERAGTKAGNKGAEAALTALEMINVIKAIKG | not soluble |
| MGSDKIHHHHHHMSAIERITKAAHLIDMNDIIREGNPTLRTVAEEVTFPLSDQEIILGEKMMQFLKHSQDPVMAEKMGLRGGVGLAAPQLDISKRIIAVLVPNIVEEGETPQEAYDLEAIMYNPKIVSHSVQDAALGEGEGCLSVDRNVPGYVVRHARVTVDYFDKDGEKHRIKLKGYNSIVVQHEIDHINGIMFYDRINEKDPFAVKDGLLILE | soluble |
| LKVLKRFDIETDYGSAIIADTITGRIEYTVATGGCIFPEVSRTIQTLENMGASVFIASGDSRKFIERLGNIVGVQNKCLMPEAHHKLKRDLILNLKQDGYTVIMVGDASNDILAMEESDLSVITLQNGNVSKKALETAQIKIENISEI | not soluble |
| MGSDKIHHHHHHMAKRSIAYLDSVFDISYTFIDHHSPLNALFLHGWGSSKEIMQQAFQGCFLNYNHLYVDLPGFNQSPNDEKVLETKDYANIINLFLKSVGKKAHVVFGHSFGGKVAILCENERMVLLSSAGILEPKPLKVRCKILLAKIFKKLGLNLGFLRSKDAMGLNQAMYETFKKVISEDFSDHFKRCEKEVLLFWGKDDKATPLSSAQKMQTLLKRSVLFVLEGDHFFFLNQAKEIEKLVENYHHAKS | not soluble |
| MAHHHHHHSLNDELKNKSGKVKVMYVRSDDDSDKRTHNPRTGKGGGRPAKSRTDGGRRPARDERNNQSRDRKHETSPWRTVSRAPGDETPEKVDHGGISGKSFIDPEVLRRQRAEETRVYGENACQALFQSRPDAIVRAWFIQSVTPRFKEALRWMAANRKAYHVVDEAELAKASGTEHHGGVCFLIKKRNGTTVKQWVKQAADQDCVLALEDVANPHNLGGMMRSCAHFGVKGVVVQDAALLESGAAIRTAEGGAEHVQPITGESIVDVLDDFRQAGYTVVTTSSDRGQALFSTTLPEKMVLVLGREYDYLPEAAREPDDLCVKINGTGNVESLNVSVATGVLLAEWWRQNKAEG | soluble |
| MDESAALRAFQDALRTQRPEFGQFFLARLLGLDISYPDGQCLIVFEPQDFLFNPQGSLHGGIIATVMDISMGHLLNHVQGAGLTLEMKTQYLKAVHQGTVYCRGEFLQRGRSVSFLKSTLTDAQGEPLAMATSTWKALSPLEHHHHHH | soluble |
| MSGRLTGKVALVSGGARGMGASHVRAMVAEGAKVVFGDILDEEGKAMAAELADAARYVHLDVTQPAQWKAAVDTAVTAFGGLHVLVNNAGILNIGTIEDYALTEWQRILDVNLTGVFLGIRAVVKPMKEAGRGSIINISSIEGLAGTVACHGYTATKFAVRGLTKSTALELGPSGIRVNSIHPGLVKTPMTDWVPEDIFQTALGRAAEPVEVSNLVVYLASDESSYSTGAEFVVDGGTVAGLAHNDFGAVEVSSQPEWVT | soluble |
| AHHHHHHGSTQKKLIEYTNPSTSRRKITRIPIDSPDYPPLLKQIKDPPKIIYAIGNVRLLNKPAVAIVGTRQPSERGEYYAEKVAEFYAKQGFVIVSGLALGIDSIVIKTALKTGAHVIGVLPSPVNDIVPKSNEKLAEKIIRSGGLLISELPEGTKPKKYHFVRRNRIISGISFAVVVIESELKDGTMHTVKFAKQQRRIILVTNLPASGNAKLKNEGFPILDF | soluble |
| MGPLLVWHRGDLRLHDHPALLEALARGPVVGLVVLDPNNLKTTPRRRAWFLENVRALREAYRARGGALWVLEGLPWEKVPEAARRLKAKAVYALTSHTPYGRYRDGRVREALPVPLHLLPAPHLLPPDLPRAYRVYTPFSRLYRGAAPPLPPPEALPKGPEEGEIPREDPGLPLPEPGEEAALAGLRAFLEAKLPRYAEERDRLDGEGGSRLSPYFALGVLSPRLAAWEAERRGGEGARKWVAELLWRDFSYHLLYHFPWMAERPLDPRFQAFPWQEDEALFQAWYEGKTGVPLVDAAMRELHATGFLSNRARMNAAQFAVKHLLLPWKRCEEAFRHLLLDGDRAVNLQGWQWAGGLGVDAAPYFRVFNPVLQGERHDPEGRWLKRWAPEYPSYAPKDPVVDLEEARRRYLRLARDLARG | soluble |
| MRLRNKPWAKDKIAAYPQYVIPDPETKRGRWRELFGRDRPIHVEIGTGKGKFITEMAKLHPDVNFIGIELYPSVLVSALDKLIESGLANVKLLNANAKDLTAFFADGEVSRIYLNFSDPWPKKRHEKRRLTYRDFLALYDRILAEDGDIHLKTDNQSFFEYSLVSLSQYGFVLASVQLDLHQSGMTDNVMTEYEEKFSSKGNRIYPMRGGAPAAAVVIGPNRLVGSFSISD | not soluble |
